Experimental data from the supplement of paper PMC10567573.

B1: MATN2 (parent)
chain: TDDSYSCHCLKGFTLNPDKKTCRR

Variants of: B1
Experiment: protein stability index of a GFP-peptide fusion (GPS, HEK-293T) (PSI 1-6); higher = more stable
Conditions: c terminus: a fixed tail appended
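Also: lentivirally expressed fusions sorted by FACS into six bins by GFP to DsRed ratio, PSI derived from sequencing read proportions per bin multiplied by bin number.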

Protein stability index, by site and new letter:
K11: H 2.49 | M 1.61 | W 2.2 | G 2.78 | E 2.87 | V 2.06 | C 2.51 | R 2.04 | Y 2.4 | P 2.36 | S 2.23 | L 2.04 | A 2.27 | N 2.15 | T 1.96 | Q 1.83 | F 2.27 | D 2.44 | I 2.08
K20: I 2.1 | D 2.29 | L 1.32 | H 2.17 | C 4.55 | W 1.48 | G 2.09 | E 2.06 | A 2.68 | S 2.33 | P 1.93 | N 2.04 | Q 2.95 | M 1.78 | T 1.6 | F 1.85 | V 1.77 | Y 1.53 | R 2.03
P17: C 3.48 | K 2.63 | V 2.92 | M 2.71 | Y 2.26 | S 2.11 | F 2.3 | Q 2.14 | R 2.35 | G 2.57 | D 2.65 | I 2.01 | N 2.28 | E 2.77 | W 1.65 | A 2.25 | L 2.02 | T 2.5 | H 2.42
C7: Y 3.71 | R 3.88 | Q 4.27 | L 4.59 | G 4.45 | N 4.38 | T 4.54 | A 4.59 | M 4.22 | H 3.54 | P 3.65 | I 3.9 | W 3.21 | K 4.21 | F 3.96 | V 4.28 | E 4.61 | D 4.78 | S 4.54
S6: D 2.94 | P 2.5 | E 2.31 | Y 2.12 | V 3.42 | L 2.15 | W 2.32 | H 2.55 | R 2.4 | K 3.07 | F 1.26 | T 2.19 | M 1.68 | N 1.93 | C 2.55 | G 2.4 | Q 1.76 | I 1.89
T14: K 2.16 | N 2.68 | I 2.02 | V 3.45 | D 2.14 | F 1.32 | L 2.01 | A 2.69 | Y 1.6 | E 2.23 | H 2.36 | Q 1.67 | G 2.24 | P 1.79 | W 2.69 | C 2.31 | M 1.64 | R 2 | S 2.13
L10: Q 1.77 | K 2.63 | I 2.15 | A 2.48 | M 1.9 | C 3.11 | V 1.72 | T 1.93 | W 2.98 | Y 2.32 | N 3.04 | S 2.55 | E 2.22 | P 3.56 | G 2.91 | D 3.55 | H 1.86 | R 1.65 | F 2.46
K19: Q 2.41 | G 1.62 | C 4.92 | R 2.12 | M 2.17 | P 2.19 | N 2.2 | A 2.46 | I 2.01 | V 2.3 | Y 2.25 | W 1.16 | F 1.61 | D 2.37 | H 3.66 | E 2.3 | L 2.21 | S 2.18 | T 2.06
N16: L 2.24 | P 2.85 | M 2.65 | E 2.06 | V 2.56 | C 2.97 | F 1.8 | Y 2.4 | A 2.68 | H 2.3 | S 2.24 | G 2.23 | W 1.6 | I 2.89 | R 2.75 | D 2.17 | Q 1.56 | K 2.33 | T 1.91
F13: T 2.3 | Q 2.02 | N 1.81 | D 2.27 | M 2.71 | L 2.77 | V 2.21 | A 2.88 | K 2.55 | H 1.98 | I 2.05 | R 2.14 | W 2.44 | G 2.88 | S 2.21 | E 2.45 | Y 3.04 | C 2.39 | P 2.74
L15: G 1.74 | I 2.12 | N 2.03 | K 2.64 | A 2.45 | W 2.48 | R 2.81 | V 2.55 | Y 2.45 | T 2.02 | Q 2.8 | P 2.42 | S 2.17 | M 2.38 | C 2.9 | E 2.58 | F 2.86 | D 2.14 | H 1.97
T21: F 1.57 | C 2.75 | I 2.4 | Q 2.64 | Y 2.27 | G 1.33 | E 2.89 | A 2.2 | V 2.41 | W 1.83 | L 2.15 | N 2.32 | K 2.06 | H 2.62 | R 2.34 | D 2.6 | S 2.36 | M 2.57 | P 2.36
C9: Q 4.1 | T 3.24 | K 4.03 | I 3.77 | G 4.47 | V 3.73 | N 4.57 | E 4.37 | Y 3.88 | S 4.48 | W 3.79 | A 4.6 | R 3.88 | P 4.53 | M 3.96 | L 3.93 | H 3.75 | F 3.47
G12: F 1.98 | K 2.41 | V 1.79 | S 2.1 | A 2.45 | M 1.9 | E 2.27 | D 2.19 | N 2.24 | Y 1.73 | T 2.39 | P 2.63 | C 2.54 | L 2.45 | I 1.78 | W 2.01 | Q 2.85 | R 2.08 | H 2.91
D18: A 2.11 | K 2.86 | W 2.17 | Y 1.95 | I 2.62 | H 2.83 | P 2.61 | S 2.27 | C 2.57 | M 2.48 | Q 1.97 | G 2.36 | T 2.24 | F 2.01 | V 2.42 | E 1.77 | R 2.65 | N 2.38 | L 2.23
H8: S 2.3 | R 2.51 | W 2.63 | Q 2.18 | Y 2.71 | C 2.05 | P 1.63 | D 2.05 | E 2.84 | N 1.91 | V 2.33 | L 2.4 | K 4.02 | M 2.92 | I 2.27 | T 2.08 | G 2.76 | A 1.66 | F 2.14
C22: D 2.69 | P 3 | T 2.44 | N 2.75 | A 2 | R 2.86 | E 2.02 | S 2.42 | H 2.18 | Y 1.94 | V 3.13 | G 2.27 | I 2.09 | L 2.93 | Q 2.27 | W 1.67 | F 2.16 | K 3.37 | M 1.88
R23: L 2.36 | G 2.62 | N 2.71 | P 2.56 | F 1.86 | E 2.52 | I 2.02 | D 2.62 | K 2.76 | M 1.5 | A 2.41 | C 2.83 | H 1.91
